Test results from patent US20060140858A1, “Drug pre-targeting by means of bi-specific antibodies and hapten constructs comprising a carrier peptide and the active agent(s)” (Immunomedics, Inc., priority 2002, published 2006).

How the values were obtained:
[1] = Pretargeting: I-125 F6 × 734-F(ab′)2, 72 h later In-111-IMP-224, biodistribution; details: female, mouse, in vivo, total radioactivity; for tissue to tissue ratio at 1 h / tissue to tissue ratio at 4 h / tissue to tissue ratio at 24 h: 10 uCi, tumor-to-normal organ ratio; for tissue uptake at 1 h / tissue uptake at 4 h / tissue uptake at 24 h: % ID/g tissue
GW-39 tumor xenografts = experiment: as above
[2] = nude (Taconic NCRNU), Large Int.
[3] = nude (Taconic NCRNU), Small Int.

COc1cccc2c1C(=O)c1c(O)c3c(c(O)c1C2=O)C[C@@](O)(C(CO)=NNc1ccc(C(=O)N[C@@H](CCCCNC(=O)CN(CCN(CCN(CC(=O)O)CC(=O)O)CC(=O)O)CC(=O)O)C(=O)N[C@@H](Cc2ccc(O)cc2)C(=O)N[C@@H](CCCCNC(=O)CN(CCN(CCN(CC(=O)O)CC(=O)O)CC(=O)O)CC(=O)O)C(N)=O)cc1)C[C@@H]3O[C@H]1C[C@H](N)[C@H](O)[C@H](C)O1 [IMP 224, Dox = N—NH—C6H4—CO-Lys(DTPA)-Tyr-Lys(DTPA)-NH2]
tissue to tissue ratio at 1 h ([1]; NCRNU nude, Liver): 24 ± 5.9 | tissue to tissue ratio at 4 h ([1]; NCRNU nude, Liver): 35.4 ± 6.9 | tissue to tissue ratio at 24 h ([1]; NCRNU nude, Liver): 31.6 ± 5.8 | tissue to tissue ratio at 1 h ([1]; NCRNU nude, Tail): 9.4 ± 2.8 | tissue to tissue ratio at 4 h ([1]; NCRNU nude, Tail): 26.4 ± 5.2 | tissue to tissue ratio at 24 h ([1]; NCRNU nude, Tail): 55.9 ± 5.7 | tissue to tissue ratio at 1 h ([1]; NCRNU nude, Urine): 0.3 ± 0.5 | tissue to tissue ratio at 4 h ([1]; NCRNU nude, Urine): 0.71 ± 0.6 | tissue to tissue ratio at 24 h ([1]; NCRNU nude, Urine): 8.3 ± 1.3 | tissue to tissue ratio at 1 h ([1]; nude (Taconic NCRNU), Blood): 6.1 ± 2.5 | tissue to tissue ratio at 4 h ([1]; nude (Taconic NCRNU), Blood): 12.8 ± 2 | tissue to tissue ratio at 24 h ([1]; nude (Taconic NCRNU), Blood): 41.8 ± 6.3 | tissue to tissue ratio at 1 h ([1]; nude (Taconic NCRNU), Kidney): 3 ± 0.5 | tissue to tissue ratio at 4 h ([1]; nude (Taconic NCRNU), Kidney): 3.9 ± 0.5 | tissue to tissue ratio at 24 h ([1]; nude (Taconic NCRNU), Kidney): 5 ± 0.5 | tissue to tissue ratio at 1 h [1, 2]: 87.1 ± 35 | tissue to tissue ratio at 4 h [1, 2]: 45.6 ± 19 | tissue to tissue ratio at 24 h [1, 2]: 92.4 ± 38 | tissue to tissue ratio at 1 h ([1]; nude (Taconic NCRNU), Lungs): 13.4 ± 2.7 | tissue to tissue ratio at 4 h ([1]; nude (Taconic NCRNU), Lungs): 30.1 ± 4.9 | tissue to tissue ratio at 24 h ([1]; nude (Taconic NCRNU), Lungs): 69 ± 9.4 | tissue to tissue ratio at 1 h ([1]; nude (Taconic NCRNU), Muscle): 38.6 ± 13 | tissue to tissue ratio at 4 h ([1]; nude (Taconic NCRNU), Muscle): 727 ± 797 | tissue to tissue ratio at 24 h ([1]; nude (Taconic NCRNU), Muscle): 283 ± 46 | tissue to tissue ratio at 4 h [1, 3]: 51.6 ± 14 | tissue to tissue ratio at 24 h [1, 3]: 110 ± 13 | tissue to tissue ratio at 1 h ([1]; nude (Taconic NCRNU), Spleen): 28.7 ± 8.7 | tissue to tissue ratio at 4 h ([1]; nude (Taconic NCRNU), Spleen): 44.7 ± 10 | tissue to tissue ratio at 24 h ([1]; nude (Taconic NCRNU), Spleen): 47 ± 2.2 | tissue to tissue ratio at 1 h ([1]; nude (Taconic NCRNU), Stomach): 48.7 ± 37 | tissue to tissue ratio at 4 h ([1]; nude (Taconic NCRNU), Stomach): 128 ± 46 | tissue to tissue ratio at 24 h ([1]; nude (Taconic NCRNU), Stomach): 147 ± 39 | tissue uptake at 1 h ([1]; nude (Taconic NCRNU), Blood): 1.8 ± 0.6 %ID/g | tissue uptake at 4 h ([1]; nude (Taconic NCRNU), Blood): 0.9 ± 0.2 %ID/g | tissue uptake at 24 h ([1]; nude (Taconic NCRNU), Blood): 0.2 %ID/g | tissue uptake at 1 h ([1]; nude (Taconic NCRNU), Kidney): 3.5 ± 0.6 %ID/g | tissue uptake at 4 h ([1]; nude (Taconic NCRNU), Kidney): 2.8 ± 0.3 %ID/g | tissue uptake at 24 h ([1]; nude (Taconic NCRNU), Kidney): 1.9 ± 0.2 %ID/g | tissue uptake at 1 h [1, 2]: 0.1 %ID/g | tissue uptake at 4 h [1, 2]: 0.3 ± 0.1 %ID/g | tissue uptake at 24 h [1, 2]: 0.1 ± 0.1 %ID/g | tissue uptake at 1 h ([1]; nude (Taconic NCRNU), Lungs): 0.8 ± 0.2 %ID/g | tissue uptake at 4 h ([1]; nude (Taconic NCRNU), Lungs): 0.4 %ID/g | tissue uptake at 24 h ([1]; nude (Taconic NCRNU), Lungs): 0.1 %ID/g | tissue uptake at 1 h ([1]; nude (Taconic NCRNU), Muscle): 0.3 ± 0.2 %ID/g | tissue uptake at 1 h [1, 3]: 0.5 ± 0.4 %ID/g | tissue uptake at 4 h [1, 3]: 0.2 %ID/g | tissue uptake at 24 h [1, 3]: 0.1 %ID/g | tissue uptake at 1 h ([1]; nude (Taconic NCRNU), Stomach): 0.8 ± 1.3 %ID/g | tissue uptake at 4 h ([1]; nude (Taconic NCRNU), Stomach): 0.1 %ID/g | tissue uptake at 24 h ([1]; nude (Taconic NCRNU), Stomach): 0.1 %ID/g | % ID/g tissue (GW-39 tumor xenografts; GW-39, 1 h): 10.3 ± 1.7 % ID/g | % ID/g tissue (GW-39 tumor xenografts; GW-39, 4 h): 11.0 ± 2.0 % ID/g | % ID/g tissue (GW-39 tumor xenografts; GW-39, 24 h): 9.7 ± 1.1 % ID/g | % ID/g tissue (GW-39 tumor xenografts; Liver, 1 h): 0.4 ± 0.1 % ID/g | % ID/g tissue (GW-39 tumor xenografts; Liver, 4 h): 0.3 ± 0.0 % ID/g | % ID/g tissue (GW-39 tumor xenografts; Liver, 24 h): 0.3 ± 0.0 % ID/g | % ID/g tissue (GW-39 tumor xenografts; Muscle, 4 h): 0.0 ± 0.0 % ID/g | % ID/g tissue (GW-39 tumor xenografts; Muscle, 24 h): 0.0 ± 0.0 % ID/g | tumor-to-normal organ ratio (GW-39 tumor xenografts; Small Int., 1 h): 31.9 ± 18 | % ID/g tissue (GW-39 tumor xenografts; Spleen, 1 h): 0.4 ± 0.1 % ID/g | % ID/g tissue (GW-39 tumor xenografts; Spleen, 4 h): 0.2 ± 0.0 % ID/g | % ID/g tissue (GW-39 tumor xenografts; Spleen, 24 h): 0.2 ± 0.0 % ID/g | % ID/g tissue (GW-39 tumor xenografts; Tail, 1 h): 1.1 ± 0.2 % ID/g | % ID/g tissue (GW-39 tumor xenografts; Tail, 4 h): 0.4 ± 0.1 % ID/g | % ID/g tissue (GW-39 tumor xenografts; Tail, 24 h): 0.2 ± 0.0 % ID/g | % ID/g tissue (GW-39 tumor xenografts; Urine, 1 h): 168 ± 106 % ID/g | % ID/g tissue (GW-39 tumor xenografts; Urine, 4 h): 31.8 ± 31 % ID/g | % ID/g tissue (GW-39 tumor xenografts; Urine, 24 h): 1.2 ± 0.2 % ID/g
